experiment: soluble on expression in E. coli; label from the status in PepcDB or PDB records

Row | Sequence | soluble on expression in E. coli
1 | MGSDKIHHHHHHMGESASGSDRSQKARGAFRVRSLQIRYKTSRPEIRQSWRSMLQRERPCKGGREDFEKGRRGNFSSPLRSVSLQGDCRTQLRSGKEALQFRETRRHTEQGGITMKVVVGIPSYNNAETISHVARTAAQGIVDFFDGDGMIVNSDGGSADGTRERFMETDTFGLPKESFVYEGLPGKGSAMRAIMEFALKQDAEAVVFLDADLRSVKPWWVERLAGPVLKGEADYVTPFYLRHRFDGTITNNVCFPMTAVLYGKKVRQPIGGDFGVGRKLLEIYLGKPKEIWNTDVARFGIDIWMTTTAINESGRVVQAALGTKVHDVKDPGKHLKGMFLQVVGTLFELVITYENVWKEIWKIEDVPIYGETPQEEVPSMSIDIGNLKKLARETLEEVEYIDRGILSEVKESGTLSLSSWVDTLYRSAVQYRKTRDKKVVENLLPFYFARTARFAEEVKSLSDEEAERYVYEQLDVFLEKKHSLREEWKVEDKR | not soluble
2 | MGSDKIHHHHHHENKLVSGAVGLGFGTGPTFPGADENDSGLFPVVDLKIGQYVVVNQRGLGLEHSRSLGHGELSYGLGVGYDFTSRSVEDDLRLAGLSDVDAGAMATLFLEYQTGPFSYGLEVMRGLNSDGHEGTRAKLSGGYDIQLSERAGLSVSPYLIWADDNWMDSFFSVSNAQSVASGLAAYDANAGMSQAGLNLTASYALREQVIVFASVDYATLLGDAADSSVSFDDNAASLSAGVMFRF | not soluble
3 | MVAEVSPKLAASPMKKPFGFRGKMGKWCCCCFPCCRGSGKNNMGAWRDHDDSAFTEPRYHVRREDLGKLHRAAWWGEVPRADLIVMLRGPGINKRDKKKRTALHLACANGNSEVVSLLLDRQCQLHVFDSKKRTALIKAVQCQEDECALMLLQHGTDPNLPDMYGNTALHYAVYNEDKLMAKTLLLYGADIESKNKGGLTPLLLAVHGQKQRMVKFLIKKKANLNALDRFGRTALILAVRCGSASIVSLLLQQNIDVFSQDVFGQTAEDYAVSSHHSIICQLLSDYKENQMPNNSSGNSNPEQDLKLTSEEEPQRLKGSENSQHEKVTQEPDINKDCDREVEEEMQKHGSNNVGLSENLTDGAAAGNGDGGLVPQRKSRKHENQQFPNTEIEEYHRPEKKSNEKNKVKSQIHSVDNLDDITWPSEIASEDYDLLFSNYETFTLLIEQLKMDFNDSASLSKIQDAVISEEHLLELKNSHYEQLTVEVEQMENMVHVLQK | not soluble
4 | MDGSFVQHSVRVLQELNKQREKGQYCDATLDVGGLVFKAHWSVLACCSHFFQRIYGDGTGGSVVLPAGFAEIFGLLLDFFYTGHLALTSGNRDQVLLAAKELRVPEAVELCQSFQPQTSVGQAQSGLGQPASQDVKSHLKEPTDLDEEEVFKTLSLASVDQEPRDTEQPQLGTPAQSSTAFLCGKLTQALKPSPSEDKESEDCKEPPRPFEAGGAPLQGESNEWEVVVQVEDDRDGDYVSEPETVLTRRKSKVIRKPCAAEPALGAGSLTAEPTDSRKGAAVPVECPTCHKKFLSKYYLKVHNRKHTGEKPFECPKCGKCYFRKENLLEHEARNCMNRSEQVFTCSVCQETFRRRMELRLHMVSHTGEMPYKCSSCSQQFMQKKDLQSHMIKLHGAPKPHAVSASQGWGSGGSGTAQSCPHLDVLPLPVSPTCSAPLVPSASCLGRSYSCTRLLSIVEKSSLCVRNAGTGPRAATGCRCTSRPSTGMKGLMSVSSAAMPSPRRPTSTCTCARTPARSLSSATSVGRPSAPKFGQAQPHPHGREAFQL | soluble
5 | MEKKANHGDDVQESVPIIHSQVVKIKREFEKIQHPSLKQPEMPLVFREIMGPRRSRSPLGLGERERSIPVGN | not soluble
6 | MIDILLCDVIITIGDVEIKAHKTILAAGSTYFKTMFTTPMIARDLATRVNLQMFDKMSSKILYSTYTIGI | not soluble
7 | MGSDKIHHHHHHMMLVQLRQVGVIRSPYKNFSKAPHQGRFSKETVEIEIFPEFEDGLKDIETCTHLIVLYWLDRANRDALLVVPPHDSREHGVFATRSPHRPNPIGFAVVELLERDGRVLKVKGLDALDGTPVVDIKPYSSTIDSVGNAKIGWFEEANPQSKLTRLLLRAKEFHGHICPFVALGVRMSVIAMEKLGVEEDAMASVGEDILAIVECNNCLTDGVQVATGCTLGNNSLIYLDLGKNALTIVRRKDWKGVRVYVNAENVRKYFSKEALELFNKVIVRREGSEEDAKRLSEFWEETGWKMLEIPEEEFKVEFVEVQPIERAPIFENKRCEKCGELAMATRVKDGLCLRCAGSYYAVVGRGIVKFDGEMREVV | not soluble
8 | MSLDVSAYPFFRRDMSWLSFNERVLMEAADRTLPVYDRIKFLSIFSSNLEEFYTVRVAYHQAVLQKRRDRSEAEEDSDADAHILQAIRETVIRQDELYYRIFYDQILPTLEEHGIRLRTHAPTHPDHKAYLRRFFHEEIFPLLYPMLLLPSKVRTFIRSGRVYLAVRLKEKETDEAYSYALLNVPTDGLPRFVELPRLQTDTFYYYSFLEDIIKEHLDVVFPGYEVMDSYSIKVSRDADLLLDAQRPEDLPGEIRKKVKTRKLGAPTRFMYDGRMPDEVLRYICSSCDIDPEEAIRSGNYVNLQDLAMLPNPFAPRLETLTPEPLLSKHLEQAPSLMEGIRRKDYLIHVPYYTYDYVVRLLMEAAISPDVSEIRLTQYRVAENSSIISALEAAAQSGKKVSVFVELKARFDEENNLRLSERMRRSGIRIVYSMPGLKVHAKTALILYHTPAGERPQGIALLSTGNFNETTARIYSDTTLMTANTDIVHDVYRLFRILDGDPEPARFSRLLVARYNMGEAITNLIEREIENVKRGKRGYMLLKMNGLQDKNVITQLYRASEAGVEIDLIVRGICCLVPDMPQSRNIRVTRLVDMYLEHSRIWCFHNGGKEEVFISSADWMKRNLYNRIETACPVLDPTLRREIIDILEIQLRDNIKACRIDSSLNNIYKHNSDEKPVRAQAAIYRYLKGKEETTPAAKEGHHHHHH | soluble
9 | SSSTLGKLSNQVEETLPLLKKVPANYFHICSAILMGFSLSKSATQVSAIHMDSKVDDHLIRGTEKSRLEPATQLFQNTKKIRLEDTNQENFTRIEGTGTGSLSGKALGSVVYVKESDGLEMTDVE | soluble
10 | MAHHHHHHMTGLIAPHAGMSYSGRTAAEAFAVFREYLYAKGSKGSELERIFILGPSHTRGFEGCELSAASAYETPFGPLRVDTAVVDRVITDLRKAGVGAATASRRTDEAEHSIEMETPYLSHILHYPPTTTGAPVQPAAGRVAIVPIIVGWTNRQDEKAICDVLKPYMDDARNFFICSSDFCHWGERFSYTYHYKRSEYPNIGDSIIAMDHAAMELLEKRDLERWYAYLQMTKNTICGRAPISIGMQRWASKGNKARVKFVHYSQSNKCKDADDSSVSYAAAIIME | soluble
11 | MAHHHHHHMADYEPEDNLEQNSTLSSESIQEDISSLLRTKLAGEQWNPAKVDGWVEDIVNSILTELAELKKPYKYIVTCVFMQRTGAALSVGFISLWDNTKDGMVHVPFENDSFHCLVTVYFLKND | not soluble
12 | MAHHHHHHMTDASKYKKLTPIDHVLLRPEMYVGSIETQPTPMYIFDPEKGRMVWETMRVNQGLLKIVDEILLNAADNINNSKGSVRQTYINIHISDTGEITVENDGAGLPIVRSREHKMYIPEMVFGHLLTSSNYNNDSTSTTAGRHGYGAKLTNILSTKFSVVCRTDGREFHMSWTDHMRMATAPRVNRVDPKEKNVTRVKFMPDYAHFGFPSASISLDMKRVLHKRVMDLAAMFSKIEVRLNNVPFGFRTFTDYAGLYSLPGLDGSMPPEPFVYTSPNGSVAYVPQLTQSPKRIVSVVNGVVTYNGGTHCNAAMDILDACLDSLSKNFKKNGKVVDTNRVQRHFTVLVFLVQAQPKFDSQSKARLVSTVTMPRVPKNTLEKYLERMPFLEAHVNSMDDQLTNELNKEIGAGRRLSSKTLISSITKLVDATSSRPDGRNIRTLIITEGDSAKALALNSLSSEQKKYCGVFPLRGKLLNVRNKNLKRLKTCKELQDLFLSLGLELGKEYRSPAELRYQRLLVMTDQDADGSHIKGLVINAFESLWPKLLQNNPGYISLFSTPIVKIKVSGKSKEAIAFHSFRDFHRWQRAHPSARYTAKYYKGLGTSTTAEGKEYFADMEKNVMQLTVDARDHQLLDSVFDAAEVEWRKEWMTKANAFQGEVDIDRSKKTLTIPEFVHKEMVHFALVGNARAIPHCVDGLKPSQRKILWAMLRRHNSEASKVAQLSGYISEASAFHHGEASLQETIVKMAQNFTGGNNINLLVPEGQFGSRQQLGSDHAAPRYIFTKLSRFARLLFPEEDDPLLDYMDEEGTFVEPHHYVPILPMLLCNGAVGIGFGFATTIPSFHPLDVSAAVRAMINGESAKQVVRNLVPWAVGFQGTVRRGPDNEFIAVGKYTAHPNGRFHISEIPWMTSIEAFRLHISSLASADVVQRIADYSGANHIDIDLIVRDGSLTTWAECETDLALAQRIYINGTVFSPAGTLSPIDSDLSPVLQWHYDRRLDLYKRRRTRKIGLMEMDLARLQSTRKFVEHFRQGQIDFLNATDDTLHKTCVKLGLVRVDESFDYILKKPITFFTRTSTEKLQADIAKTQAQIEELKRTTPVKMWLTELDKFDKTFQEYERVLINSIQKEQRSSSITGGVELPALRQPLLLLEASVKGATAYRVHACQYEKPPPSKRRPGESFGGARSSDSAVRGVGKRLVGSRAVFKKKKPMGRKNNVKVSLSTRVAQFAGAQLGRLLPHILV | not soluble
13 | GAKQLSTARKFKMITGKDLFQQQKAMDTELKKEDGEITDLMEFVQYGLYLALFQDNIVKAKSDFSDFRSSFEFDTDGKGLKELVELWQKEI | soluble
14 | MAHHHHHHMKKLGLVLDAAAVEKSQRDLQSYQIKNNNSLQLRAFLLNESGMFTKDGRKLPGSVTKEVIDDTSKRIIGRGASGAVYFAKLKDGGPVALKHIPITSKPHRDEVDRELSFFSSQSNSPFVMKNLGAFWDSEEAAIVIPMEWMAYTLKDLSCFWEGIEETMLRDIFFQVVSGLVYLHDTKRVIHRDLKPSNLLIRDDGYVKIGDFGVSKLVHTLDVSSTYVGTMYFMAPERLEQGAYGFNSDVWSLGLTVLSTITGKNPWAPPEEMNIFQLLGRIAGDTTPTLPEKPAYSEEARDFVKKCLVRDPQERPSTAELLKHPFFKGCTEASAVANVKQGVDYMTRLINSDAKKNGLLKRSPEDVTKEVNAKLDRLGDL | soluble
15 | MGSDKIHHHHHHMSIYRKIDRNKIQFDFIVHKTGKNFFEDEILKLGGRIYRLPNKRKHPFKYKQEFLNVIKNYKIIHVHSVYAFTYYEVKWARQCQKSVILHSHNSDAKLLRKIIHYLFKHLQNHYVSVRLSPSKQAAKWMFNEGHDKVVYLYNGFDTTKFQFDMNSRIEIREQLGLANNDYIIGCVGRLDWQKDPIYLLRLFEKLKANDNAYKLIFIGDGSYRQTLERETHQKGLVNDVIFTGSVSNVPEYLSALDIFVLPTRYEGLGISLIEAQINGLPVFTNKDVPKEAVINQNMYLLDKGDSELWVDAINKELNVINLKKRKVNLSDFNQYNIETVVKKLQNIYLQLLS | not soluble
16 | MGSDKIHHHHHHMKNFVLDTNVLLYDPQAIFKFEENNIIIPITVIEEVDRFKKDMNETGRNARQVSRYLDDMRKIGSLSSGITLETGGMLRVEMYEEKIMKRLPPELREERGDNRILAVAVKILEENGGAPVVFVTKDTNLRIKADAIGLKAEDYESDKVDIEELYPGFTEIDVAADTVDRFHGQGWVELPGQTFFPNQCVTLRDEANPSHTALGKYRVGDGKITPLIKTGKEGVWSIFPRNREQAFAFDLLLDDSIKLVTLVGKAGTGKTLLAIAAGLHKTAEENVFNRLLVSRPVFPMGRDLGFLPGDIEEKLAPWMQPIFDNVELLLSGHEAEKRHSKGYKELMAMGIMEIEPLTYIRGRSIPNQFMIVDEAQNLTPHEIKTIITRAGEGTKIVLTGDPYQIDNPYVDASSNGLTYVVERFKEQAIAGHVTMTKGERSDLAELAANLL | not soluble
